Key:
[1] = molecular target: T1, cyno FGFR2b protein (recombinant) (cyno, UniProt A0A2K5TL97 22-380); assay: SPR, antibody captured by anti-human Fc, cyno FGFR2b
cyno FGFR2b on cells [2] = molecular target: T2, cyno FGFR2b on cells (cyno, UniProt A0A2K5TL97 22-821); assay: flow cytometry, Expi293 cells overexpressing cyno FGFR2b
[3] = molecular target: T1, cyno FGFR2b protein (recombinant); assay: ELISA, plate-coated cyno FGFR2b
cyno FGFR2b on cells [4] = molecular target: T2, cyno FGFR2b on cells; assay: flow cytometry, cyno FGFR2b OE cells

T2 sequence (A0A2K5TL97 entry or part of it): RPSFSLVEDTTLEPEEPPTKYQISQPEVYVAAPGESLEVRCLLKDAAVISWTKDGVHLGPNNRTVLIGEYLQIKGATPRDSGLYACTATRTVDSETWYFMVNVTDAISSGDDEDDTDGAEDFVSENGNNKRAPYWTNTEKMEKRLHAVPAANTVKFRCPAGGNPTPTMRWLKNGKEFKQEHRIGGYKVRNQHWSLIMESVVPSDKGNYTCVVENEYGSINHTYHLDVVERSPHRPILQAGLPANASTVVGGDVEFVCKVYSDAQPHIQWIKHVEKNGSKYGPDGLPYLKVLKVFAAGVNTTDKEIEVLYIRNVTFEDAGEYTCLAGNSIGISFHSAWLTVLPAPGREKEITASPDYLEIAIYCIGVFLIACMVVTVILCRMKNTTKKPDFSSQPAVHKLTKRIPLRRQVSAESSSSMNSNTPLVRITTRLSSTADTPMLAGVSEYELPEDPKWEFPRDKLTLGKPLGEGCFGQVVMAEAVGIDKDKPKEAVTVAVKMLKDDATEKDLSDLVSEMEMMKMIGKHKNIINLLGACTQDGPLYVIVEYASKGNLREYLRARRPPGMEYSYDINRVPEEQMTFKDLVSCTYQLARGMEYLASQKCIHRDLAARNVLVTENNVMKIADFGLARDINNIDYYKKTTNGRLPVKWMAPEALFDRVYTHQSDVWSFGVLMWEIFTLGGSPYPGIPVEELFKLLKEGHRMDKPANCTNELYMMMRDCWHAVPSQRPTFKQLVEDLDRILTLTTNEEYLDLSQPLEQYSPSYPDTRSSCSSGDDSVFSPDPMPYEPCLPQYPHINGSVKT

Binder	Kd [1]	koff [1]	kon [1]	EC50 (cyno FGFR2b on cells [2])	Emax (MFI) (cyno FGFR2b on cells [2])	EC50 [3]	Emax (A450) [3]	EC50 (cyno FGFR2b on cells [4])
BGAh9179 (antibody, human IgG1, kappa, V domains shown, also called BGA9179; humanized antibody developed from BGAm1371) VH: QVQLVQSGAEVKKPGASVKVSCKASGYTITDTYIHWVRQAPGQGLEWMGRIDPAEGNTMFASEFQGRVTMTADTSTSTVYMELSSLRSEDTAVYYCARSKIHYDYDEGFAYWGQGTLVTVSS VL: DIVLTQSPDSLAVSLGERATINCRASESVDDYGYSFLHWYQQKPGQPPKLLIYRASNLESGVPDRFSGSGSGTDFTLTISSLQAEDVAVYYCQQSNQNPRTFGGGTKVEIKR	20.6 nM	0.00172 s⁻¹	83700 M⁻¹ s⁻¹	8.45 nM	6.25e+06 MFI	0.0469 nM	2.95 A450	–
BGA1421 (antibody, human IgG1, kappa, V domains shown, also called bemarituzumab; comparator antibody alone (un-conjugated)) VH: QVQLVQSGAEVKKPGSSVKVSCKASGYIFTTYNVHWVRQAPGQGLEWIGSIYPDNGDTSYNQNFKGRATITADKSTSTAYMELSSLRSEDTAVYYCARGDFAYWGQGTLVTVSS VL: DIQMTQSPSSLSASVGDRVTITCKASQGVSNDVAWYQQKPGKAPKLLIYSASYRYTGVPSRFSGSGSGTDFTFTISSLQPEDIATYYCQQHSTTPYTFGQGTKLEIKR	–	–	–	–	–	–	–	0.49 nM
BGA2354 (antibody, human IgG1, lambda, V domains shown, also called M047 (Bayer; BAY1895344)) VH: EVQLLESGGGLVQPGGSLRLSCAASGFTFRTSGMHWVRQAPGKGLEWVAVISYDGSNKYYADSVKGRFTISRDNSKNTLYLQMNSLRAEDTAVYYCARESPGYDFEYWGQGTLVTVSS VL: not shown	–	–	–	–	–	–	–	0.34 nM

More lines, now with the values ahead:

Kd [1]	koff [1]	kon [1]	EC50 (cyno FGFR2b on cells [2])	Emax (MFI) (cyno FGFR2b on cells [2])	EC50 [3]	Emax (A450) [3]	EC50 (cyno FGFR2b on cells [4])	Binder
24.6 nM	0.0018 s⁻¹	73500 M⁻¹ s⁻¹	6.27 nM	7.36e+06 MFI	0.0551 nM	3 A450	–	BGAm1823 (antibody, V domains shown, assays detect or capture it with anti-human IgG; also called murine parental antibody of BGAh9239) VH: EVQLQQSGAELVKPGASVKISCKASGYAFSIYWMNWVKQRPGKGLEWIGQIYPENGDTNYNGKFKGKATLTADKSSSTAYMHLSSLTSEDSAVYFCARGGFDYWGQGTTLTVSS VL: NIVMTQSPASLSASVGETVTITCRASENIYSNLAWYQQKQGKSPQLLVYTATNLADGVPSRFSGSGSGTQFSLKINSLQPEDFGSYYCQHFYGILYTFGSGTRLEIK
15.7 nM	0.00125 s⁻¹	79700 M⁻¹ s⁻¹	4.73 nM	6.19e+06 MFI	0.0245 nM	3.02 A450	5.02 nM	BGAm1371 (antibody, V domains shown, assays detect or capture it with anti-human IgG; also called parental mouse clone; murine parental antibody of BGAh9179) VH: QVQLKQSGAELVKPGASVKLSCTASGFNIKDTYIHWVKQRPEQGLEWIGRIDPANGNTMFASEFQGKATITAYTSSNTAYMQLSSLTSGDTAVYYCARSKIHYDYDEGFAYWGQGTLVTVSS VL: NIVLTQSPPSLAVSLGQRATVSCRASESVDDYGYSFLHWYQQKPGQPPKLLIYRASNLESGIPARFSGSGSRTDFTLTINPVETDDVATYYCQQSNQNPRTFGGGTKLEIK
34 nM	0.00272 s⁻¹	79900 M⁻¹ s⁻¹	7.93 nM	6.88e+06 MFI	0.0442 nM	2.93 A450	1.55 nM	BGAh9239 (antibody, human IgG1, kappa, V domains shown, also called humanized antibody developed from BGAm1823) VH: QVQLVQSGAEVKKPGSSVKVSCKASGYTFSIYWLNWVRQAPGQGLEWMGQIYPENADTNYSGKFKGRVTITADKSTSTAYMELSSLRSEDTAVYFCARGGFDYWGQGTLVTVSS VL: DIQMTQSPSSLSASVGDRVTITCRASENIYSNLAWYQQKPGKAPKLLIYTATNLAEGVPSRFSGSGSGTDFTLTISSLQPEDFATYYCQHFYGILYTFGQGTRLEIKR
